Source: patent US20250263469A1

Target: SARS-CoV-2 Spike on pseudotyped virus (PsV) (SARS-CoV-2) (UniProt P0DTC2)
Test: cell-based or functional assay

REGN10933 (recombinant mAb, reference IgG) (antibody)
Median IC50, SARS-CoV-2 PsV neutralization: 0.0044 µg/mL

REGN10987 (recombinant mAb, reference IgG) (antibody)
Median IC50, SARS-CoV-2 PsV neutralization: 0.03 µg/mL
